Measured values taken from PMC3836730, “Molecular Cloning and Characterization of Taurocyamine Kinase from Clonorchis sinensis: A Candidate Chemotherapeutic Target” (PLoS Neglected Tropical Diseases, 2013).

B1: C. sinensis TK D1 (CsTK D1) (Clonorchis sinensis) (protein)
chain: MQVEPLKSLQQKIVNDEANRSFTKKHLTNRIVDLYADKKTSFGGSLAQCVSHNARNPRCILPRACDLDAYEAFREFFDAVIIDYHKVKGDKITHPKSDFGDLKSLNFKDLNADGNMVVSTRVRLGRTVAGYGFCPTISNEQRLELEKKISTALKDLSGEFKGTYYPLTGMKEEDRKKLVEKHFLFRDDDSVLRDAGGYIDWPNGRGIFINEKENFLVWVNEEDHIRVISMQKGGDLIAVYKRLANAISELGKSLTFATNDRFGFITFCPSNLGTTLRASVHARVPYLSALPNFEQICEKYNIQARGTHGEHTASVGGVYDLSNKRRLGLTEIEAVTEMYNGVQALLDLEKQLAAYNKDAP
notes: truncated N-terminal domain D1 (360 residues of the 717-residue two-domain protein, 40,573 Da); MBP fusion (pMAL-c2), E. coli TB1, amylose resin; about 80 kDa with MBP
B2: C. sinensis TK D2 (CsTK D2) (Clonorchis sinensis) (protein)
chain: AGVMPVEPLTYLSHLLEAADPVKNYTRKHLTPEIIKKYDGVRTTHGATLAHMVRNGAYNPHSICPRTGEAECYTKFVDYLDAVILDYHGVSDPAFKHPPPTFGDLNNLPFGDVDPEGKFVVSTRVRVGRSVDGFLFSTIMSKQDRLDLETKVSTALKSLTGDHAGSYYPLANMSEATRKQLVEDHFLFKNDDPVLRDAGGYRDWPHGRGIFHNANKTFLVWLCEEDHMRIISMQKGGDLAAVYKRLIQGIQAIEKTLPFAHSDKYGYITCCPSNLGTTMRASVLLKIPKLSAQKAKLDEVCAKYRLQARGLHGEHTESPEGIHDISNKRRLGLTELEAAKEMADGVAQMIAIEKSLP
notes: truncated C-terminal domain D2 (357 residues of the 717-residue two-domain protein, 39,719 Da); MBP fusion (pMAL-c2), E. coli TB1, amylose resin; about 80 kDa with MBP
B3: C. sinensis TK whole (CsTK D1D2) (Clonorchis sinensis) (protein)
chain: MQVEPLKSLQQKIVNDEANRSFTKKHLTNRIVDLYADKKTSFGGSLAQCVSHNARNPRCILPRACDLDAYEAFREFFDAVIIDYHKVKGDKITHPKSDFGDLKSLNFKDLNADGNMVVSTRVRLGRTVAGYGFCPTISNEQRLELEKKISTALKDLSGEFKGTYYPLTGMKEEDRKKLVEKHFLFRDDDSVLRDAGGYIDWPNGRGIFINEKENFLVWVNEEDHIRVISMQKGGDLIAVYKRLANAISELGKSLTFATNDRFGFITFCPSNLGTTLRASVHARVPYLSALPNFEQICEKYNIQARGTHGEHTASVGGVYDLSNKRRLGLTEIEAVTEMYNGVQALLDLEKQLAAYNKDAPAGVMPVEPLTYLSHLLEAADPVKNYTRKHLTPEIIKKYDGVRTTHGATLAHMVRNGAYNPHSICPRTGEAECYTKFVDYLDAVILDYHGVSDPAFKHPPPTFGDLNNLPFGDVDPEGKFVVSTRVRVGRSVDGFLFSTIMSKQDRLDLETKVSTALKSLTGDHAGSYYPLANMSEATRKQLVEDHFLFKNDDPVLRDAGGYRDWPHGRGIFHNANKTFLVWLCEEDHMRIISMQKGGDLAAVYKRLIQGIQAIEKTLPFAHSDKYGYITCCPSNLGTTMRASVLLKIPKLSAQKAKLDEVCAKYRLQARGLHGEHTESPEGIHDISNKRRLGLTELEAAKEMADGVAQMIAIEKSLP
notes: full-length contiguous two-domain enzyme, 717 residues, 80,274 Da; MBP fusion (pMAL-c2), E. coli TB1, amylose resin; 120 kDa with MBP

System: N=C(N)NCCS(=O)(=O)O
Assay: purified protein
Type: biochemical, Clonorchis sinensis
Details: co-substrate ATP, Mg-acetate, Tris-HCl pH 8, 25°C

Row | Molecule | Km | kcat | kcat/Km
1 | C. sinensis TK D2 (CsTK D2) (Clonorchis sinensis; I423A) | 300 ± 50 µM | 6.46 ± 0.45 s⁻¹ | 21500 M⁻¹ s⁻¹
2 | C. sinensis TK D1 (CsTK D1) (Clonorchis sinensis; R58A) | 850 ± 60 µM | 33.03 ± 1.14 s⁻¹ | 38900 M⁻¹ s⁻¹
3 | C. sinensis TK D2 (CsTK D2) (Clonorchis sinensis; H421A) | 360 ± 70 µM | 5.92 ± 1.23 s⁻¹ | 15600 M⁻¹ s⁻¹
4 | C. sinensis TK D2 (CsTK D2) (Clonorchis sinensis; Y447A) | 3640 ± 210 µM | 6.45 s⁻¹ | 1770 M⁻¹ s⁻¹
5 | C. sinensis TK D1 (CsTK D1) (Clonorchis sinensis; Y84A) | 820 ± 70 µM | 32.90 ± 1.54 s⁻¹ | 40100 M⁻¹ s⁻¹
6 | C. sinensis TK D2 (CsTK D2) (Clonorchis sinensis; Y447R) | 3010 ± 250 µM | 0.99 ± 0.52 s⁻¹ | 330 M⁻¹ s⁻¹
7 | C. sinensis TK whole (CsTK D1D2) (Clonorchis sinensis; R58A) | 450 ± 190 µM | 15.00 ± 0.25 s⁻¹ | 33300 M⁻¹ s⁻¹
8 | C. sinensis TK D1 (CsTK D1) (Clonorchis sinensis; I60A) | 510 ± 70 µM | 22.43 ± 0.38 s⁻¹ | 44000 M⁻¹ s⁻¹

Substrate: Nc1ncnc2c1ncn2[C@@H]1O[C@H](COP(=O)(O)OP(=O)(O)OP(=O)(O)O)[C@@H](O)[C@H]1O
Assay: purified protein
Type: biochemical, Clonorchis sinensis
Details: co-substrate taurocyamine, Mg-acetate, Tris-HCl pH 8, 25°C

Row | Molecule | Km | kcat
9 | B1 | 460 ± 120 µM | 22.59 ± 0.15 s⁻¹
10 | B2 | 750 ± 130 µM | 4.50 ± 0.11 s⁻¹
11 | B3 | 780 ± 70 µM | 17.78 ± 0.98 s⁻¹

Substrate: N=C(N)NCCS(=O)(=O)O
Assay: purified protein
Type: biochemical, Clonorchis sinensis
Details: co-substrate ATP, Mg-acetate, Tris-HCl pH 8, 25°C
Remark: another data set of the same source

Row | Molecule | Km | kcat | kcat/Km
12 | B1 | 350 ± 10 µM | 22.59 ± 0.15 s⁻¹ | 54500 M⁻¹ s⁻¹
13 | B2 | 480 ± 50 µM | 4.50 ± 0.11 s⁻¹ | 9380 M⁻¹ s⁻¹
14 | B3 | 490 ± 20 µM | 17.78 ± 0.98 s⁻¹ | 36300 M⁻¹ s⁻¹
